Test results from patent US10538591B2, “Anti-fibulin-3 antibodies and uses thereof” (THE BRIGHAM AND WOMEN'S HOSPITAL, INC., priority 2014, dated 2020).
“Also recorded” adds a separate entry of the source.

Legend:
[1] = tested on: Notch signaling induced by fibulin-3; assay: Notch reporter in ARPE19 retinal pigmented epithelial cells; type: cell-based, human; conditions: 100 μg/ml, 0, 2, 4, 6 and 24 h
Experimental: Cells were co-transfected with plasmids carrying fibulin-3 cDNA (Fib3 OE) or a control cDNA (Control) and incubated in serum-free conditions for 24 h (FIG. 18). The following day mAb428.3C11 (100 μg/ml) was added to the cultures and Notch (left panel) or NF-kB (right panel) signaling activities were measured after 0, 2, 4, 6, and 24 h. […] The inhibitory effect caused by the antibody on control reporter signaling (black dots) may have been caused by blocking of endogenous fibulin-3 that is highly expressed by ARPE19 cells.

[2] = biological target: T1, purified human fibulin-3 (Homo sapiens, UniProt Q12805); assay: Western blot and dot-blot detection of fibulin-3; type: binding
T1 construct: purchased ORIGENE
T1 sequence (Q12805 18-493): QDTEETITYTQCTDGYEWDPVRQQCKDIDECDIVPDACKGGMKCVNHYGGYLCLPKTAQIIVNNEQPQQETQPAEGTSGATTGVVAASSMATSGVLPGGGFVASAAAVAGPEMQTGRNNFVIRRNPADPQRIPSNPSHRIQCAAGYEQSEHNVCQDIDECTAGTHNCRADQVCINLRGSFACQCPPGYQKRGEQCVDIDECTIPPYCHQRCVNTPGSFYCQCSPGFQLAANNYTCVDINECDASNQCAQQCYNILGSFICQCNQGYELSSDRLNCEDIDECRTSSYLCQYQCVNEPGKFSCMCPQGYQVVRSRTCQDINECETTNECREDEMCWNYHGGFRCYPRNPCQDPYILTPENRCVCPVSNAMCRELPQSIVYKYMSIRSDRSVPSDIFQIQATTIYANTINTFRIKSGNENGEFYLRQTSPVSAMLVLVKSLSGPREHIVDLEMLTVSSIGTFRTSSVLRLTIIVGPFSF
Experimental: CNSI glioma cells were transfected with fibulin-3 cDNA (fib3-OE cells) or a control plasmid (control cells) and cultured for 24 h in serum-free conditions. Conditioned medium was collected and probed by Western blotting with anti-Fib3/911 (911), anti-Fib3/912 (912), or their respective preimmune sera (antibodies and sera were used at 1/5000 dilution).
Two rabbit polyclonal antibodies were commissioned against the 23-amino acid peptide sequence of fibulin-3 involved in Notch activation. The peptide was minimally modified to facilitate the formation of a disulfide bridge necessary to form a conformational, tri-dimensional epitope (FIG. 4). Antibodies against fibulin-3 (“anti-Fib3/911” and “anti-Fib3/912”) were purified by affinity chromatography, aliquoted, and prepared in phosphate-buffered saline (PBS) solution for all subsequent tests.
Purified human fibulin-3 (200 ng/lane, ORIGENE) was subjected to SDS-PAGE in reducing and non-reducing conditions and probed with affinity-purified mAb428.3C11 (0.4 to 20 μg/ml, diluted in PBS from a 2 mg/ml stock).
Concentrated, serum-free culture medium from HEK293 cells (1 mg/ml total protein) was probed with anti-human IgG secondary antibody (HRP conjugate) to detect the chains of antibody in reducing and non-reducing conditions. C) Concentrated medium from HEK293 cells (1 mg/ml total protein) was directly used to probe purified human fibulin-3 (resolved by SDS-PAGE in non-reducing conditions).

[3] = biological target: T2, fibulin-3 in human primary glioblastoma (Homo sapiens, UniProt Q12805); assay: Immunohistochemistry of human primary glioblastoma sections; conditions: anti-Fib3/911 10 μg/ml, mAb428.3C11 40 μg/ml, mAb3-5 5 μg/ml
T2 construct: specificity of mAb428.3C11 to detect native fibulin-3 in tumor tissue; from tissue; host or cells: frozen sections of human primary glioblastoma
T2 sequence (Q12805 18-493): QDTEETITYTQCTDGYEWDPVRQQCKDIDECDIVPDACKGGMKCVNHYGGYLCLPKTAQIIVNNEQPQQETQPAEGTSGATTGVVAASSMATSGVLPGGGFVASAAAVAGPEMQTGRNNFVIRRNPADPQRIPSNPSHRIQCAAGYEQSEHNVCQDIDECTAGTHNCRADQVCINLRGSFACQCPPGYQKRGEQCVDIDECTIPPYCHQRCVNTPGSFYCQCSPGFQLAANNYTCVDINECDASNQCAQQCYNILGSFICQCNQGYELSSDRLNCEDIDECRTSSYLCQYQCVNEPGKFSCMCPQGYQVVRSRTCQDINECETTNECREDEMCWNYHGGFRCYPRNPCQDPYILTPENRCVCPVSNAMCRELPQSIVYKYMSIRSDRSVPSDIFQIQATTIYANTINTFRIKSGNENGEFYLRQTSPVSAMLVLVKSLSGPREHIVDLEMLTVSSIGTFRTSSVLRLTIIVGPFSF
Experimental: (§1) Frozen sections of human primary glioblastoma and normal adult human brain were fixed in ethanol/acetate buffer and processed for immunohistochemistry with the following anti-fibulin-3 antibodies: rabbit polyclonal anti-Fib3/911 (10 μg/ml), mouse monoclonal anti-fibulin-3 mAb428.3C11 (40 μg/ml), and a commercial mouse monoclonal antibody against human fibulin-3 (mAb3-5, 5 μg/ml, Santa Cruz Biotechnology). […] Both in-house generated antibodies show stronger staining in the tumor parenchyma compared to the commercial antibody. In all cases, staining is particularly intense around tumor blood vessels. […] Sections were counterstained to identify endothelial markers and cell nuclei by staining with anti-CD31 and DAPI respectively. (Data not shown).
Specific and striking fibrillar staining patterns of fibulin-3 were observed around tumor blood vessels (magnification: 40×). […] Endothelial cells were stained with anti-CD31 and cell nuclei with the dye DAPI. (Data not shown).

[4] = tested on: normal adult human brain; assay: Immunohistochemistry of normal adult human brain sections; conditions: anti-Fib3/911 10 μg/ml, mAb428.3C11 40 μg/ml, mAb3-5 5 μg/ml
Experimental: as §1

B1: mAb428.2: mouse monoclonal IgG1 kappa antibody against human fibulin-3 peptide SEQ ID NO:2; VH SEQ ID NO: 3, VL SEQ ID NO: 4 (antibody, V domains shown)
VH: QIQLVQSGPELKKPGETVKISCKASGYSFTTYGMSWVKQAPGKGLKWMGWINTYSGVPTYADDFKGRFAFFLETSASTAYLQINNLKNEDTATYFCARWVDYWGQGTTLTVSS
VL: DIKMTQSPSSMYASLGERVTITCKASQDIKSYLSWHQQKPWKSPKTLIYYATSLADGVPSRFSGSGSGQDYSLTISSLESDDTATYYCLQHGKSPYTFGGGTKLEIK
[1]
  effect on fibulin-3-induced Notch reporter activity: strong blocking effect
[2]; SDS-PAGE, reducing and/or non-reducing conditions
  detection of fibulin-3 by Western blotting: high sensitivity of the antibody towards fibulin-3
[2]; non-reduced fibulin-3 on nitrocellulose, scFv428.2 medium 1 mg/ml, mAb428.2 1 μg/ml
  detection of native fibulin-3 by dot-blotting: able to detect native fibulin-3 by dot-blotting
[3]
  fibulin-3 staining in glioblastoma tissue: detected fibulin-3 in the stroma and capillaries of human GBM
[3]; listed as mAb428.3C11
  fibulin-3 staining in glioblastoma tissue: Specific staining of fibulin-3 in tumor tissue; also recorded: detected the same fibrillar pattern observed with a commercial anti-fibulin-3 antibody
[4]
  staining in normal brain: without cross-reactivity against normal brain
[4]; listed as mAb428.3C11
  staining in normal brain: complete absence of staining in normal tissue
